{"source": "patent US6528618B1", "about": "“Anti-inflammatory peptides derived from C-reactive protein” (Yeda Research and Development Co. Ltd., priority 1997, dated 2003)", "molecules": {"B1": {"name": "CRP: plasma protein classified as a major acute phase reactant; five identical sub-units of 206 amino acids (pentraxin) (protein, listed as Homo sapiens)", "chain": "ETDMSRKAFVFPKESDTSYVSLKAPLTKPLKAFTVCLHFYTELSSTRGYSIFSYATKRQDNEILIFWSKDIGYSFTVGGSEILFEVPEVTVAPVHICTSWESASGIVEFWVDGKPRVRKSLKKGYTVGAEASIILGQEQDSFGGNFEGSQSLVGDIGNVNMWDFVLSPDEINTIYLGGPFSPNVLNWRALKYEVQGEVFTKPQLWP", "modifications": "pentamer"}, "B2": {"name": "peptide 18 (peptide)", "peptide": "DILIFWSKDIGYSFT", "notes": "Analog of peptide 6 (CRP62-76) with Glu62 replaced by Asp; also called pep18"}}, "key": {"[1]": {"biological_target": "T1, hLE (Homo sapiens, UniProt P08246)", "T1 construct": "Neutrophils (1.4 billion) were isolated from whole blood obtained from a single healthy laboratory donor; from tissue; host or cells: neutrophils from whole blood of a single healthy donor", "T1 sequence (P08246 30-247 limits assumed)": "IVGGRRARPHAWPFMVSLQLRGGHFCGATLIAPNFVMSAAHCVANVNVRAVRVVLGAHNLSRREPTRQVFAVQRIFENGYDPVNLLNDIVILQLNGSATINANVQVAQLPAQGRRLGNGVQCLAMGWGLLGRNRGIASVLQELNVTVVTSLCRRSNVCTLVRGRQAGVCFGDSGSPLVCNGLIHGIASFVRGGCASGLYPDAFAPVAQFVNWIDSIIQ", "test": "Resistance to proteolysis by hLE, degradation profile by RP-HPLC", "assay_type": "in vitro ADME", "details": "PBS, 37° C., up to 12 hours", "method": "(§1) (vii) Degradation profiles of peptides by RP-HPLC: Several active peptide inhibitors were dissolved in calcium- and magnesium-free phosphate-buffered saline (PBS), 125 μg /250 μL, mixed with […] of hLE or hCG in 250 μL PBS and incubated at 37° C. Periodically (up to 12 hrs), 100 μL samples were removed from the reaction vessel. The samples were diluted with 150 μL of 0.1% TFA, frozen with liquid nitrogen, and stored at −20° C. prior to HPLC analysis.\n(§2) The stability of the peptide bonds in peptide 6 were evaluated by incubating the peptide with hLE and hCG and monitoring degradation profiles of the peptide by reverse-phase HPLC. Briefly, peptide 6 was dissolved in calcium- and magnesium-free phosphate-buffered saline (PBS), 50 μg/250 μL, mixed with 3 μg of hLE or hCG in 250 μL PBS and incubated at 37° C. Periodically, after 1,3,8, and 12 hrs incubation, 100 μL samples were removed from the reaction vessel. The samples were diluted with 150 μL of 0.1% TFA, frozen with liquid nitrogen, and stored at −20° C. prior to HPLC analysis."}, "[2]": {"biological_target": "T2, human leukocyte elastase (hLE) (Homo sapiens, UniProt P08246)", "T2 construct": "Neutrophils (1.4 billion) were isolated from whole blood obtained from a single healthy laboratory donor; from tissue; host or cells: neutrophils from whole blood of a single healthy donor", "T2 sequence (P08246 30-247 limits assumed)": "T1 sequence (P08246 30-247 limits assumed)", "test": "In vitro inhibition of hLE (cleavage of MeOSuc-AAPV-NA)", "assay_type": "biochemical"}, "[3]": {"biological_target": "T3, hCG (Homo sapiens, UniProt P08311)", "T3 construct": "Neutrophils (1.4 billion) were isolated from whole blood obtained from a single healthy laboratory donor; from tissue; host or cells: neutrophils from whole blood of a single healthy donor", "T3 sequence (P08311 21-243 limits assumed)": "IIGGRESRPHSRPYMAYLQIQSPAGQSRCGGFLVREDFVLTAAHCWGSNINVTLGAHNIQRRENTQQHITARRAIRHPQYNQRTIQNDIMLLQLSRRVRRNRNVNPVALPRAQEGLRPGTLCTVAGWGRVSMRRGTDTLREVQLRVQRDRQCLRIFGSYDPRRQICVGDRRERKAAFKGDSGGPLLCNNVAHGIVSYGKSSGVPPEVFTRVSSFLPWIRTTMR", "test": "Resistance to proteolysis by hCG, degradation profile by RP-HPLC", "assay_type": "in vitro ADME", "details": "PBS, 37° C., up to 12 hours", "method": "as §1, §2"}, "[4]": {"biological_target": "T4, human leukocyte cathepsin G (hCG) (Homo sapiens, UniProt P08311)", "T4 construct": "Neutrophils (1.4 billion) were isolated from whole blood obtained from a single healthy laboratory donor; from tissue; host or cells: neutrophils from whole blood of a single healthy donor", "T4 sequence (P08311 21-243 limits assumed)": "T3 sequence (P08311 21-243 limits assumed)", "test": "In vitro inhibition of hCG (cleavage of Suc-AAPF-NA)", "assay_type": "biochemical", "summary_of_the_method": "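Purified hCG (1.2 μg, about 40 picomol) incubated with 600 μM Suc-AAPF-NA and CRP-derived peptides at 1–100 μM in 100 mM Hepes pH 7.4, 0.05% Brij-35, 5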"}, "[5]": {"biological_target": "T5, human leukocyte elastase (human, UniProt P08246 30-267)", "T5 construct": "mature; Active enzyme purified from human neutrophils; also called hLE", "T5 sequence (looked up)": "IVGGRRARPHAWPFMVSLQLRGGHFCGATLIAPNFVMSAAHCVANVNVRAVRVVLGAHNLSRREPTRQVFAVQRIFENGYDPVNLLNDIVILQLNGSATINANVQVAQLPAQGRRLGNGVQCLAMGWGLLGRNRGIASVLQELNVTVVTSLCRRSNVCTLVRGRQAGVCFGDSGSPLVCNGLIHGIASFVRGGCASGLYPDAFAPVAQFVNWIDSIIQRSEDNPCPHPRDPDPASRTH", "test": "hLE enzyme inhibition kinetics, cleavage of MeOSuc-AAPV-NA", "method": "(§3) (v) Inhibition experiments with hLE: Peptides were dissolved in 100 mM Hepes buffer pH 7.4 containing 0.1% Brij-35 with 10%. DMSO to yield 300 µM solutions, which were used to make further dilutions with the same buffer, and 80 µL aliquots were added in duplicates to 96-well plates. The substrate, 600 µM MeOSuc-AAPV-NA in the same buffer with 5% DMSO, was added to each well in addition to the blank wells, and the plate was placed in the plate reader equilibrated to 37 C (Dynateck MR-6000). Lyophilized aliquots of hLE were dissolved in 1600 µL of 100 mM Hepes buffer without DMSO, and 80 µL of the enzyme solution was added to the peptides and substrate to initiate the reaction. The kinetics program read the plate at 405 nm every 2 min for 20 min (with a 3 sec shaking period between readings), and plotted the results as well as the average of each duplicate. The final volume was 240 µL containing: 5% DMSO, 1–100 µM of peptide, 200 µM substrate, and 0.75 µg (~25 picomol) enzyme.\n(§4) The hLE inhibitory capability of CRP-derived peptides was evaluated by inhibiting the enzymatic cleavage of MeOSuc-AAPV-NA as described in Materials and Methods (section v)."}, "[6]": {"biological_target": "T6, human leukocyte cathepsin G (human, UniProt P08311 21-244)", "T6 construct": "mature; Active enzyme purified from human neutrophils; also called hCG; human Cathepsin G", "T6 sequence (looked up)": "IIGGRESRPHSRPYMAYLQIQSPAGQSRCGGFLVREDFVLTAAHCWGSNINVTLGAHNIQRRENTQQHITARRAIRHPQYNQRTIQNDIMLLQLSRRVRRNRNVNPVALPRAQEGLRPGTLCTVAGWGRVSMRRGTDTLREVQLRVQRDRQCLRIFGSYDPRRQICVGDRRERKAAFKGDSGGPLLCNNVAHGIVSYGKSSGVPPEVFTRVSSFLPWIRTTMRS", "test": "hCG enzyme inhibition kinetics, cleavage of Suc-AAPF-NA", "method": "as §3\n(§5) vi) Inhibition experiments with hCG: Similar conditions to hLE inhibition experiments were used except the substrate: 80 µL of 1.80 mM Suc-AAPF-NA. The enzyme was dissolved in 800 µL buffer, and the reaction was monitored every 6 min for 1 hour. The final volume was 240 µL containing: 5% DMSO, 1–100 µM peptide, 600 µM substrate, and 1.2 µg enzyme (about 40 picomol)."}, "[7]": {"biological_target": "T5, human leukocyte elastase", "test": "hLE enzyme inhibition kinetics, cleavage of MeOSuc-AAPV-NA", "method": "as §3, §4", "remark": "listed apart in the source"}, "[8]": {"biological_target": "specific receptors on monocytes", "details": "in vitro; read-out: Kd, binding to receptors on monocytes; cited from earlier work"}, "[9]": {"tested_on": "specific receptors on human neutrophils", "details": "in vitro; read-out: Kd, binding to receptors on human neutrophils; cited from earlier work"}, "[10]": {"biological_target": "T7, hLE (Homo sapiens, UniProt P08246)", "T7 sequence (P08246 30-267)": "T5 sequence (looked up)", "details": "CRP as a whole protein; cited from earlier work"}, "[11]": {"biological_target": "T6, human leukocyte cathepsin G", "test": "hCG enzyme inhibition kinetics, cleavage of Suc-AAPF-NA", "method": "as §3, §5", "remark": "listed apart in the source"}, "[12]": {"details": "peptide concentrations above 50 μM"}}, "note": "Where two headings read alike, the source gives them in different places. Where a SMILES comes first, the peptide text is derived from it."}
{"molecule": "CC[C@H](C)[C@H](NC(=O)[C@H](CC(=O)O)NC(=O)[C@H](CCCCN)NC(=O)[C@H](CO)NC(=O)[C@H](Cc1c[nH]c2ccccc12)NC(=O)[C@H](Cc1ccccc1)NC(=O)[C@@H](NC(=O)[C@H](CC(C)C)NC(=O)[C@@H](NC(=O)[C@@H](N)CCC(=O)O)[C@@H](C)CC)[C@@H](C)CC)C(=O)NCC(=O)N[C@@H](Cc1ccc(O)cc1)C(=O)N[C@@H](CO)C(=O)N[C@@H](Cc1ccccc1)C(=O)N[C@H](C(=O)O)[C@@H](C)O", "note": "[Peptide 6, Glu-Ile-Leu-Ile-Phe-Trp-Ser-Lys-Asp-Ile-Gly-Tyr-Ser-Phe-Thr] (H-EILIFWSKDIGYSFT-OH; N-terminus and C-terminus assumed)", "values": [{"measurement": "cleavage products after incubation with hLE", "setting": "[1]", "result": "no cleavage products were observed"}, {"measurement": "hLE inhibitory activity (in words)", "setting": "[2]", "result": "submicromolar concentrations"}, {"measurement": "Ki", "setting": "[2]; hLE Ki [μM], Table 1, substrate MeOSuc-AAPV-NA 200 μM, pH 7.4, 37 C", "result": "0.18 ± 0.03", "unit": "µM"}, {"measurement": "hLE inhibition at concentrations above 50 μM", "setting": "[2]; [12]", "result": "Total inhibition"}, {"measurement": "cleavage products after incubation with hCG", "setting": "[3]", "result": "no cleavage products were observed"}, {"measurement": "hCG inhibitory activity (in words)", "setting": "[4]", "result": "submicromolar concentrations"}, {"measurement": "Ki", "setting": "[4]; hCG Ki [μM], Table 1, substrate Suc-AAPF-NA 600 μM, pH 7.4", "result": "0.25 ± 0.05", "unit": "µM"}, {"measurement": "hCG inhibition at concentrations above 50 μM", "setting": "[4]; [12]", "result": "total inhibition"}]}
{"molecule": "EILIFWSKDI (Synthetic; also called pep14)", "note": "[peptide 14 (CRP62-71)]", "values": [{"measurement": "Ki", "setting": "[5]", "result": 6.7, "unit": "µM"}, {"measurement": "Ki", "setting": "[6]", "result": 6, "unit": "µM"}]}
{"molecule": "ILIFWSKDIGYSFT (Synthetic)", "note": "[peptide 11 (CRP63-76)]", "values": [{"measurement": "Ki", "setting": "[5]", "result": 4.5, "unit": "µM"}, {"measurement": "fold decrease in hLE inhibition against peptide 6", "setting": "[7]", "result": "~20", "unit": "fold"}, {"measurement": "Ki", "setting": "[6]", "result": 15, "unit": "µM"}]}
{"molecule": "B1", "values": [{"measurement": "Kd", "setting": "[8]", "result": "~0.1", "unit": "µM"}, {"measurement": "Kd", "setting": "[9]", "result": "~0.05", "unit": "µM"}, {"measurement": "inhibitory effect of whole CRP on hLE", "setting": "[10]", "result": "no inhibitory effect"}]}
{"molecule": "EILIFWSKDIGY (Synthetic; also called pep13)", "note": "[peptide 13 (CRP62-73)]", "values": [{"measurement": "Ki", "setting": "[5]", "result": 1.1, "unit": "µM"}, {"measurement": "Ki", "setting": "[6]", "result": 4, "unit": "µM"}]}
{"molecule": "B2", "values": [{"measurement": "Ki", "setting": "[5]", "result": 2.2, "unit": "µM"}, {"measurement": "fold lower inhibitory activity against peptide 6", "setting": "[7]", "result": 10, "unit": "fold"}, {"measurement": "Ki", "setting": "[6]", "result": 2.6, "unit": "µM"}]}
{"molecule": "KRQDNEILIFWSKDI (Synthetic 15-mer)", "note": "[peptide 5 (CRP57-71)]", "values": [{"measurement": "Ki", "setting": "[7]", "result": 85, "unit": "µM"}, {"measurement": "Ki", "setting": "[11]", "result": 180, "unit": "µM"}]}
{"molecule": "ILFEVPEVTVAPVHI (Synthetic 15-mer)", "note": "[peptide 10 (CRP82-96)]", "values": [{"measurement": "Ki", "setting": "[7]", "result": 55, "unit": "µM"}, {"measurement": "Ki", "setting": "[11]", "result": 150, "unit": "µM"}]}
